{
  "source": "patent US10293026B2",
  "about": "“Agent for preventing or treating demyelinating disease” (Osaka University, priority 2014, dated 2019)",
  "key": {"[1]": {"system": "oligodendrocyte precursor cells in demyelination model mice", "assay": "PDGFRα and Ki67 double-positive cells in spinal cord of demyelination model mice, subcutaneous administration (Example 5)", "format": "in vivo, C57BL/6j mice", "conditions": "subcutaneous 500 ng/kg body weight per day for 2 weeks, vs saline with 0.5% BSA, FIG. 5", "experimental": "Demyelination model mice were produced by performing a laminectomy at the 11th and 12th thoracic vertebrae in C57BL/6j mice (female, 7-week-old), and topically administering 2 μl of lysophosphatidylcholine diluted to 1% (w/v) in saline solution at a depth of 2 mm into the midline of the spinal column.\nAn FGF21-containing solution prepared by diluting recombinant FGF21 (R&D) in saline solution was subcutaneously administered for 2 weeks at a dose of 500 ng/kg body weight of FGF21 per day. After 2 weeks, the demyelination model mice were anesthetized and transcardially perfused with saline solution, and spinal cord tissue was harvested. The harvested spinal cord tissue was fixed with a 4% paraformaldehyde solution, which was then replaced with a 30% sucrose solution, and subsequently, frozen thin sections were prepared. The sections were immunostained using an anti-PDGFRα antibody and an anti-Ki67 antibody, and the number of PDGFRα and Ki67 double-positive cells in the sections was counted. As a control, a saline solution containing 0.5% BSA was used, and the number of PDGFRα and Ki67 double-positive cells was counted under the same conditions as those described above. This experiment conducted the study using five or six mice for each group."}, "[2]": {"system": "oligodendrocyte precursor cells in demyelination model mice", "assay": "PDGFRα and Ki67 double-positive cells in spinal cord of demyelination model mice, osmotic pump administration (Example 4)", "format": "in vivo, C57BL/6j mice", "conditions": "continuous local administration by osmotic pump for 7 days, 350 ng in total, vs saline, p<0.05, FIG. 4", "experimental": "Demyelination model mice were produced by topically administering 2 μl per mouse of lysophosphatidylcholine diluted to 1% (w/v) in saline solution into the spinal cord of C57BL/6j mice (female, 7-week-old).\nOsmotic pumps (ALZET) were filled with an FGF21-containing solution prepared by diluting recombinant FGF21 (R&D) to 4.17 μg/ml in saline solution, a cannula was attached to the tip of each pump, and the tip was attached to the site of lysophosphatidylcholine administration in each demyelination model mouse to continuously administer FGF21. After 7 days, the demyelination model mice were anesthetized and transcardially perfused with saline solution, and spinal cord tissue was harvested. Ultimately, 350 ng of FGF21 was administered. The spinal cord tissue was fixed with a 4% paraformaldehyde solution, which was then replaced with a 30% sucrose solution, and subsequently, frozen thin sections were prepared. The sections were immunostained using an anti-PDGFRα antibody and an anti-Ki67 antibody, and the number of PDGFRα and Ki67 double-positive cells in the sections was counted. PDGFRα is a marker for oligodendrocyte precursor cells, and Ki67 is a cell proliferation marker. As a control, saline solution was used, and the number of PDGFRα and Ki67 double-positive cells was counted under the same conditions as those described above. […]"}},
  "data": [
    {"molecule": "FGF21: Recombinant fibroblast growth factor 21 (R&D); the claimed active ingredient promoting oligodendrocyte precursor cell proliferation (protein, listed as Homo sapiens) MDSDETGFEHSGLWVSVLAGLLLGACQAHPIPDSSPLLQFGGQVRQRYLYTDDAQQTEAHLEIREDGTVGGAADQSPESLLQLKALKPGVIQILGVKTSRFLCQRPDGALYGSLHFDPEACSFRELLLEDGYNVYQSEAHGLPLHLPGNKSPHRDPAPRGPARFLPLPGLPPALPEPPGILAPQPPDVGSSDPLSMVGPSQGRSPSYAS", "values": [
      {"measurement": "number of PDGFRα and Ki67 double-positive cells", "setting": "[1]", "value": "increased"},
      {"measurement": "number of PDGFRα and Ki67 double-positive cells", "setting": "[2]", "value": "increased"}
    ]}
  ]
}
